Source: PMC8204342, “Dual arginine recognition of LRRK2 phosphorylated Rab GTPases” (Biophysical Journal, 2021)

B1: RILPL2-GFP WT, full length [human] / HA-Rab8a in MLi-2 treated cells (LRRK2 inhibited) [Homo sapiens (Human).] (parent)
chain 1: MEEPPVREEEEEEGEEDEERDEVGPEGALGKSPFQLTAEDVYDISYLLGRELMALGSDPRVTQLQFKVVRVLEMLEALVNEGSLALEELKMERDHLRKEVEGLRRQSPPASGEVNLGPNKMVVDLTDPNRPRFTLQELRDVLQERNKLKSQLLVVQEELQCYKSGLIPPREGPGGRREKDAVVTSAKNAGRNKEEKTIIKKLFFFRSGKQT
chain 2: MAKTYDYLFKLLLIGDSGVGKTCVLFRFSEDAFNSTFISTIGIDFKIRTIELDGKRIKLQIWDTAGQERFRTITTAYYRGAMGIMLVYDITNEKSFDNIRNWIRNIEEHASADVEKMILGNKCDVNDKRQVSKERGEKLALDYGIKFMETSAKANINVENAFFTLARDIKAKMDKKLEGNSPQGSNQGVKITPDQQKRSSFFRC

Variants of: B1
Experiment: co-immunoprecipitation (GFP binder Sepharose) with LI-COR immunoblot quantification
Conditions: with HA-Rab8a in MLi-2 treated cells (LRRK2 inhibited) [Homo sapiens (Human).]; HEK293 cells, Flag-LRRK2[Y1699C] + HA-Rab8a co-expressed; 500 nM MLi-2 for 90 min; parent: 0.11; read off a plot

Row | ratio to parent | Variant
1 | 0.13 | chain 1 D127A
2 | 0.12 | chain 1 D127N
3 | 0.11 | chain 1 P128A
4 | 0.09 | chain 1 D124N
5 | 0.06 | chain 1 D124A
6 | 0.12 | chain 1 T126A
